# Data taken from the DeepSol protein solubility set.
# Assay: soluble on expression in E. coli; label from the status in PepcDB or PDB records
row,Sequence,soluble on expression in E. coli
1,MAHHHHHHMQSNSAPVSYGAQLRASMQTLRANDTQFEQFTRGLGAVLQQWTALQLVAQHCDSRAPAVLYEDLCAWHKHDGEVYVDDMEVYFEEFFDNIRSARIEDDSMQEVGTVLHDMYCRCCLNDFSLVEHYLETLAMYVQTNPVAMSVNGGTNENLEDDAEEDAELGGDAVCEEGVDNEDEESEPMQAPTPKAPQQPPQPPRHQQQPQRKKRKNTSVRSRDGWNIVQ,not soluble
2,MAYQSKNTDEHVTFADALLSKRYRKAQNDFLNQVERLIDWRPIRTLINKKYTKRQNAIGAPAYDVILLFKMLLLETWYNLSDCALEERINDSITFSRFLGLKMEEVSPDHSTISRFRSALTELGLMDKLLAQFNKQLSRHHISVREGVLVDASLVETPHKPNGTITIEVADDREDNRSEAEKEAEEDYQKQVVRRRKGTDEEARWVYKQKRYHYGYKKHCLTNVQGIVQKVITTAANRSDTKEFIPLLQGANIPQGTAVLADKGYACGENRSYLQTHHLQDGIMHKAQRNRALTEEEKQGNKAISPIRSTIERTFGSIRRWFHGGRCRYRGLAKTHTQNILESIAFNLYRTPGIIMSSSLG,not soluble
3,MGSDKIHHHHHHMLNPREIRTIEDAKRIVEERQLTHVKVGLFDIDGVMLGKYMSRNKFFSALEHGFAFCDVILGWDSKDKLYDNVKYTGWHTGYPDASVRIVPSTCREILFEENQLLFMAEFSQAAEAICPRGILRRVINKAAGMGYDVYAALEYEFFVFDETPDSVRAKGFRNLKPVTPDNFGYSIIRNTVHAEFYHQILTMAEKMDFPIEGLHTETGPGVLEAAIAVDDAEAAGDKAALFKTFMKILAQRNNKMATFMAKWSGDYPGQSGHIHLSLRDRDGGKSAFYESGREYNMSKIQRHFLAGQQKLMPEFLAMLSPTVNSYSRLIPGYWAPTEATWGVENRTTALRVIPGSDKSQRIEYRLGSADANPYLALAAAIGSGLYGIENELEPEAEVKGNSYEQHHSPALALPRTLWESAQNLKNSSAAYELFGQEFVEHFAASREWEEREFRKHITDWELDRYFEII,not soluble
4,MSLEEETYVVFDVETTGLSAVYDTIIELAAVKVKGGEIIDKFEAFANPHRPLSATIIELTGITDDMLQDAPDVVDVIRDFREWIGDDILVAHNASFDMGFLNVAYKKLLEVEKAKNPVIDTLELGRFLYPEFKNHRLNTLCKKFDIELTQHHRAIYDTEATAYLLLKMLKDAAEKGIQYHDELNENMGQSNAYQRSRPYHATLLAVNSTGLKNLFKLVSLSHIHYFYRVPRIPRSQLEKYREGLLIGSACDRGEVFEGMMQKSPEEVEDIASFYDYLEVQPPEVYRHLLELELVRDEKALKEIIANITKLGEKLNKPVVATGNVHYLNDEGHHHHHH,not soluble
5,MSLKGDYFFMDRRPLILVAEENLHNLELLNSHMKTLNYDCICAKQGVRAIILAQTQKPDLIILDMILSDLSGSQVINHLKQDSKTANIPIIAVIPFILVQNQDHLFLTGADDYITKPYNFIQLNTLITHYVNRRHSSSLLSEGHHHHHH,soluble
6,MDLASLRAQQIELASSVICEDRLDKDPPDLIAGADVGFEQGGEVTRAAMVLLKYPSLELVEYKVARIATTMPYIPGFLSFREYPALLAAWEMLSQKPDLVFVDGHGISHPRRLGVASHFGLLVDVPTIGVAKKRLCGKFEPLSSKPGALAPLMDKGEQLAWVWRSKARCNPLFIATGHRVSVDSALAWVQRCMKGYRLPEPTRWADAVASERPAFVRYTANQPLEHHHHHH,not soluble
7,MGSDKIHHHHHHMMETTQFNPIQLKRARVARGKTMKVLAEETGISRQMISNYELGKTVPSGLNLVKLISVLNFPKNYFSATQASNLHGATFFRSQNAATKRARDMQSVRLSFQNDIYTTLSQYVNFPKVDLPESLDMDVDDITNDNIKFMAMRVRDQWDLGTKTPIENLIQTAEIHGIVVVKTNMTNDKLDAVSEIIEGRPFIMLTDNGESAVRRRFNVAHELGHIVLHAGIESIHDFTSQQLKNTIERQANLFASTFLMPDDAFVESLLSTSLDYYIKLKQYWKASIQSMIYKTYQLGLINDDQKLYLNKKISWNKWRKIEPLDNILEIENPTLFGKVFNMIIDHKVVSQADLLSELKLPFDELECSLGIQLATQKNISEPKLRLL,not soluble
8,IGYWHYDADTDTATWSKGLFKILGLPPSNVALNYSSFLDLVHPNDKAGLKNVVEKALKEKEDYDYELRVRNGDNDYKWYRTIARANPHK,not soluble
9,MGSDKIHHHHHHMFDLHVHSVFSDGELIPSEIARRMYAAGNKGFAITDHADFTNIQDILAKLTRIKEHMESYEAKFLVGVEITHVPPSLIGKAVELAWKEGAEIVVVHGETVAEPVKEGTNLAALSEEITILAHPGIMSEEEAELARENGIYVEISARRGHCLGNGRVARLAEKYGFELVINTDMHSPSDIINDSTAERILKGAGVKEWKSVLENNEKLFRKLRK,not soluble
10,MGHHHHHHSHMKFRAKIVDGACLNHFTRISNMIAKLAKTCTLRISPDKLNFILCDKLANGGVSMWCELEQENFFNEFQMEGVSAENNEIYLELTSENLSRALKTAQNARALKIKLTNKHFPCLTVSVELLSMSSSSRIVTHDIPIKVIPRKLWKDLQEPVVP,not soluble
11,MGSDKIHHHHHHMAGLRVFVSSTCYDLSVIRSQLRIFIQSLGHEPLMSDYSDLLYDPRLHTHTSCVDEVATADIVVLIVGARFGGKTVPEALAKLDFDLLKKESKSTESLIKKENLSVTQLEILKAVESGIPVFTFVDSSVWHDHALYEKNKDKPIINDISFPSIEKAETASFIFEFINFLRHRARGNSVYTFSKLQDIEDTLRRQWSSLFQKLIQEQRSKAFEAKRLDNLTEQFEDLKTAILTSIGTTNERDVARGVVRFRRLIDFVRSLGLKDHNFLIRGHHPWDELLHYAEIEKVLDAAELPEEFIFHRRNFGSRPRMFLIKNDGTFFELRTSPDFFHSLSLEWEAFMDLPEDTREIIVDALSEMRPGMGPLRYIREPFDYHVDKWIHQERLLKDIDDSDHESSHS,not soluble
12,MSLTNNSETFNVLHASDFHIQLDYKLGAEGNCTLVPCGTSSSYSKDAPGKTYNFTDYYKSFNSDVSGNDISFYPDSHYDENAKFSKGDYYDFPQYFGWSFNKAPATSFGAYLSDAPYLLVNNSIVEMKKLHQEKNFESIIFTGDSFSHNGELANPDELKFSEAAIFNLINHYLNGVQVFPALGNHDTMFRYAEVAPRIYVSNASYYWNEDYVTDLWVNNGWFDKKDADAIKTHYTGYSFTTKRGLKVIGMNSNFYYGDNLWSYGETTTKPDKFGIWKFLIDELVDSESHGQRVWIMAHIPSNNYDVLPIQSHIFAAIVKRFSPYTIANLFFGHTHRTQYSVYYSTNDTSKIEDALTVSWVNPSVTPYTNFNPGFRYYEVENESFNIRNSFSYYFDLNGTEGHHHHHH,soluble
13,MEKIRQPTHAGSWYTDNPTKLSSDLEEWLNATGLTKSPDVRGVIAPHAGYSYSGRAAAYAFANIDPTNISRIFLLGPSHHFYTPKCALSTATVYKTPIGNLPVDVEMIKEIRAMGKFGMMDLRVDEAEHSMEMHLPYLAKVFEGNNVKVVPILVGAVSPENEAMYGELLAKYVDDPKNFFSVSSDFCHWGSRFNYMHYDNTHGAIHKSIEALDKKGMDIIETGDPDAFKKYLLEFENTICGRHPISIFLHMLKHSSSKIKINFLRYEQSSQCQTMRDSSVSYASAAAKLET,not soluble
14,MEKELKALTKRLQQYNEQLLLIARRARERNEEPDFFGDVKPMAEEVQAVAERWKDAASRWVRHARPKYVHERQIEAAADHMAKLCVEAFYPSVPERRIKQYSQAVAYTLALVKERLDDTSEAGKERL,not soluble
15,SELRPSGDSGSSDVDAEISDGFSPLDTSHRDVADEGSLLRRAEMYQDYMKQVPIPTNRGSLIPFTSWVGLSISMKQLYGQPLHYLTNVLLQRWDQSRFGTDSEEQRLDSIIHPTKAEATIWLVEEIHRLTPSHLHMALLWRSDPMYHSFIDPIFPEK,soluble
16,MAFLLALDQGTTSSRAILFTLEGRPVAVAKREFRQLYPKPGWVEHDPLEIWETTLWAAREVLRRAGAEAGEVLALGITNQRETTLLWDRKTGKPLHNAIVWQDRRTTPLCEALRAKGLEPLFRERTGLLFDPYFSGTKLVWLLENVPGLKARAEGGGVAFGTVDTWLIWNLTGGKVHATDPTNASRTLLFNLHTLAWDPELLEALGIPAALLPEVRPSDGDFGETLPELLGAPVPIRGVLGDQQAALFGQAALGGGEGKCTYGTGAFLLLNTGKRPVLSEKGLLATVAWSLGGRATYALEGSLFVAGAAVGWLKEVGLIRESAEVEALAASVEDTGDVYFVPAFTGLGAPYWDPYARGTLLGLTRGTSRAHLARAALEGVAFQVRDVVLAMEEEAGVRLKVLKADGGMAQNRLFLKIQADLLGVPVAVPEVTETTALGAALMAGVGAGALSPEDVAGRFREAERFLPTMPEGRREALYRRWREAVERAKGWAREG,soluble
17,MKLYYKVGAASLAPHIILSEAGLPYELEAVDLKAKKTADGGDYFAVNPRGAVPALEVKPGTVITQNAAILQYIGDHSDVAAFKPAYGSIERARLQEALGFCSDLHAAFSGLFAPNLSEEARAGVIANINRRLGQLEAMLSDKNAYWLGDDFTQPDAYASVIIGWGVGQKLDLSAYPKALKLRERVLARPNVQKAFKEEGLN,soluble
18,MGSDKIHHHHHHMRGIVCVHKFCSRFSRTAYFTYGWMMNIELISLLKGNMGLTLTSELAADICVAAYRMETLAQSRDIAQIKPRYNGRIVFAVERIEDITEEIKHLHRTHWNETEGHRHRLPFQPDYETFIRYEQAGRYLLFTVRSEGKLLGNCAMYLDKSAHTQTLIATEDTLYLLPEARRGTTAKRFVRYVENAMKLLGVREINITVKTVNKAARFFRLLGYRHVENGLTKILEIENV,not soluble
19,HMAMASKEMFEDTVEERVINEEYKIWKKNTPFLYDLVMTHALQWPSLTVQWLPEVTKPEGKDYALHWLVLGTHTSDEQNHLVVARVHIPNDDAQFDASHCDSDKGEFGGFGSVTGKIECEIKINHEGEVNRARYMPQNPHIIATKTPSSDVLVFDYTKHPAKPDPSGECNPDLRLRGHQKEGYGLSWNSNLSGHLLSASDDHTVCLWDINAGPKEGKIVDAKAIFTGHSAVVEDVAWHLLHESLFGSVADDQKLMIWDTRSNTTSKPSHLVDAHTAEVNCLSFNPYSEFILATGSADKTVALWDLRNLKLKLHTFESHKDEIFQVHWSPHNETILASSGTDRRLNVWDLSKIGEEQSAEDAEDGPPELLFIHGGHTAKISDFSWNPNEPWVICSVSEDNIMQIWQMAENIYNDE,soluble
20,MGSDKIHHHHHHMQPHPETTPVTSCTIIDATDRSIRQTLGETSTLARLIWVDAGLASPPLCSGLARCGRCRVRITEAAPAPHEDDREFFSAEDISAGWRLACRHAPAHGMVVHVPLPVMPHRHASRPKHPGPFRLAVDLGTTSLQWSLLAPDGTVAAQGSETNPQMGAGSDVMSRIAMARSDKGRGRLRELVLQALRRIVADVEGTPATADAVPPAGSGDEPTTACGYESRVEELCVAGNTAMTAILADESVEGLASAPYRLEMRGGTALALPGLPPAWIPPLPAPFVGGDLSAGYLAVLTDHAPAFPFVLADLGTNGEFVLALSPERTLVTSVALGPALEGIGLTFGTVAQRGAITSFTLTPGGLVPYVLDGGEADGISGTGYISLVHALLRAGLLDVDGRFIQSPSSPLAARMARSIVSHRGEPCLPLARGLYLAARDIEEILKVKAAFSLAFERLLATAQMPSHALSGIHLAGALGQHALPADLEGLGFIPPGSGGRTRAVGNTSLRGAELLLTSPPLRDTLNTWREGCTVVDLTAAPDFSAAFLRHMHFHF,not soluble
21,MAMNVTEIVLKKPVTAHNEMLHVLELREPTYDEIEALGFPFIISGEGSIKLDSQVALKYIPLLAGIPCSSAAQMAKLDIFKTSMQILRFFTQSETGSTSGNDSTMLPGSGN,not soluble
